# Data taken from the Immune Epitope Database (IEDB).
# Tests used:
# HLA-A*68:02 = assay: IEDB peptide-MHC binding, cellular MHC/competitive/fluorescence; ≥ and ≤ were set here for values at or beyond the usual limits of such assays
# HLA-A*02:01 = assay: IEDB peptide-MHC binding, purified MHC/competitive/radioactivity; ≥ and ≤ were set here for values at or beyond the usual limits of such assays
# HLA-A*02:02 = assay: as above
# HLA-A*02:03 = assay: as above
# HLA-A*02:06 = assay: as above
# [1] = source organism: Vaccinia virus WR
# [2] = source organism: Mammarenavirus lassaense
# [3] = source organism: Hepacivirus hominis
# [4] = source organism: Influenza A virus
sequence,measurement,setting,value
GMSIVCIVA,IC50,HLA-A*68:02; [1],9840 nM
same,IC50,HLA-A*02:01; [1],83 nM
same,IC50,HLA-A*02:02; [1],190 nM
same,IC50,HLA-A*02:03; [1],656 nM
same,IC50,HLA-A*02:06; [1],4510 nM
SILSLETVKM,IC50,HLA-A*68:02; [1],11100 nM
same,IC50,HLA-A*02:01; [1],1310 nM
same,IC50,HLA-A*02:02; [1],203 nM
same,IC50,HLA-A*02:03; [1],455 nM
same,IC50,HLA-A*02:06; [1],806 nM
NLAPHLLLIV,IC50,HLA-A*68:02; source organism: SARS-CoV1,7240 nM
same,IC50,HLA-A*02:01; source organism: SARS-CoV1,206 nM
same,IC50,HLA-A*02:02; source organism: SARS-CoV1,5.1 nM
same,IC50,HLA-A*02:03; source organism: SARS-CoV1,1.1 nM
same,IC50,HLA-A*02:06; source organism: SARS-CoV1,125 nM
LLMEGLKLLS,IC50,HLA-A*68:02; [2],8470 nM
same,IC50,HLA-A*02:01; [2],12 nM
same,IC50,HLA-A*02:02; [2],78 nM
same,IC50,HLA-A*02:03; [2],40 nM
same,IC50,HLA-A*02:06; [2],1750 nM
ILFLTLIVFT,IC50,HLA-A*68:02; source organism: SARS-CoV1,7110 nM
same,IC50,HLA-A*02:01; source organism: SARS-CoV1,21 nM
same,IC50,HLA-A*02:02; source organism: SARS-CoV1,24 nM
same,IC50,HLA-A*02:03; source organism: SARS-CoV1,1070 nM
same,IC50,HLA-A*02:06; source organism: SARS-CoV1,703 nM
PTWLGAAITL,IC50,HLA-A*68:02; [1],7400 nM
same,IC50,HLA-A*02:01; [1],4810 nM
same,IC50,HLA-A*02:02; [1],1360 nM
same,IC50,HLA-A*02:03; [1],1010 nM
same,IC50,HLA-A*02:06; [1],1770 nM
LLYFILFFV,IC50,HLA-A*68:02; [3],23000 nM
same,IC50,HLA-A*02:01; [3],164 nM
same,IC50,HLA-A*02:02; [3],227 nM
same,IC50,HLA-A*02:03; [3],323 nM
same,IC50,HLA-A*02:06; [3],504 nM
LLLEWLAEVV,IC50,HLA-A*68:02; source organism: SARS-CoV1,10800 nM
same,IC50,HLA-A*02:01; source organism: SARS-CoV1,0.37 nM
same,IC50,HLA-A*02:02; source organism: SARS-CoV1,0.31 nM
same,IC50,HLA-A*02:03; source organism: SARS-CoV1,0.81 nM
same,IC50,HLA-A*02:06; source organism: SARS-CoV1,0.52 nM
AIMDKNIML,IC50,HLA-A*68:02; [4],13000 nM
same,IC50,HLA-A*02:01; [4],75 nM
same,IC50,HLA-A*02:02; [4],153 nM
same,IC50,HLA-A*02:03; [4],802 nM
same,IC50,HLA-A*02:06; [4],304 nM
RMPTDMLKL,IC50,HLA-A*68:02; [1],≥ 70000 nM
same,IC50,HLA-A*02:01; [1],1840 nM
same,IC50,HLA-A*02:02; [1],950 nM
same,IC50,HLA-A*02:03; [1],106 nM
same,IC50,HLA-A*02:06; [1],678 nM
FLARKGIDT,IC50,HLA-A*68:02; [1],≥ 70000 nM
same,IC50,HLA-A*02:01; [1],1420 nM
same,IC50,HLA-A*02:02; [1],1020 nM
same,IC50,HLA-A*02:03; [1],318 nM
same,IC50,HLA-A*02:06; [1],3040 nM
KLFPRLPGI,IC50,HLA-A*68:02; [3],40200 nM
same,IC50,HLA-A*02:01; [3],1.3 nM
same,IC50,HLA-A*02:02; [3],8.3 nM
same,IC50,HLA-A*02:03; [3],0.5 nM
same,IC50,HLA-A*02:06; [3],2.2 nM
YLGHSAGFTA,IC50,HLA-A*68:02; [1],8220 nM
same,IC50,HLA-A*02:01; [1],21 nM
same,IC50,HLA-A*02:02; [1],16 nM
same,IC50,HLA-A*02:03; [1],86 nM
same,IC50,HLA-A*02:06; [1],144 nM
SMSQELAEL,IC50,HLA-A*68:02; [1],42900 nM
same,IC50,HLA-A*02:01; [1],84 nM
same,IC50,HLA-A*02:02; [1],4 nM
same,IC50,HLA-A*02:03; [1],7.7 nM
same,IC50,HLA-A*02:06; [1],186 nM
TLFGRGVIDT,IC50,HLA-A*68:02; [1],5730 nM
same,IC50,HLA-A*02:01; [1],130 nM
same,IC50,HLA-A*02:02; [1],199 nM
same,IC50,HLA-A*02:03; [1],96 nM
same,IC50,HLA-A*02:06; [1],3310 nM
ALDGVLSTFV,IC50,HLA-A*68:02; source organism: SARS-CoV1,5200 nM
same,IC50,HLA-A*02:01; source organism: SARS-CoV1,28 nM
same,IC50,HLA-A*02:02; source organism: SARS-CoV1,3.3 nM
same,IC50,HLA-A*02:03; source organism: SARS-CoV1,28 nM
same,IC50,HLA-A*02:06; source organism: SARS-CoV1,140 nM
ILSLETVKM,IC50,HLA-A*68:02; [1],9700 nM
same,IC50,HLA-A*02:01; [1],204 nM
same,IC50,HLA-A*02:02; [1],4.8 nM
same,IC50,HLA-A*02:03; [1],12 nM
same,IC50,HLA-A*02:06; [1],280 nM
SLVYGIRCV,IC50,HLA-A*68:02; [1],51400 nM
same,IC50,HLA-A*02:01; [1],301 nM
same,IC50,HLA-A*02:02; [1],2940 nM
same,IC50,HLA-A*02:03; [1],3.8 nM
same,IC50,HLA-A*02:06; [1],168 nM
CLWWTCYMLV,IC50,HLA-A*68:02; [3],10300 nM
same,IC50,HLA-A*02:01; [3],271 nM
same,IC50,HLA-A*02:02; [3],1870 nM
same,IC50,HLA-A*02:03; [3],891 nM
same,IC50,HLA-A*02:06; [3],2700 nM
VLAGYGAGI,IC50,HLA-A*68:02; [3],14700 nM
same,IC50,HLA-A*02:01; [3],408 nM
same,IC50,HLA-A*02:02; [3],11 nM
same,IC50,HLA-A*02:03; [3],18 nM
same,IC50,HLA-A*02:06; [3],2500 nM
YLYGIGSAVV,IC50,HLA-A*68:02; [3],5120 nM
same,IC50,HLA-A*02:01; [3],39 nM
same,IC50,HLA-A*02:02; [3],12 nM
same,IC50,HLA-A*02:03; [3],3.5 nM
same,IC50,HLA-A*02:06; [3],285 nM
LAELLEMKYA,IC50,HLA-A*68:02; [1],23300 nM
same,IC50,HLA-A*02:01; [1],2510 nM
same,IC50,HLA-A*02:02; [1],999 nM
same,IC50,HLA-A*02:03; [1],1040 nM
same,IC50,HLA-A*02:06; [1],2450 nM
DMLKLFTHDI,IC50,HLA-A*68:02; [1],6410 nM
same,IC50,HLA-A*02:01; [1],1450 nM
same,IC50,HLA-A*02:02; [1],196 nM
same,IC50,HLA-A*02:03; [1],16 nM
same,IC50,HLA-A*02:06; [1],2970 nM
LLPLTSLVI,IC50,HLA-A*68:02; [1],≥ 70000 nM
same,IC50,HLA-A*02:01; [1],1180 nM
same,IC50,HLA-A*02:02; [1],2390 nM
same,IC50,HLA-A*02:03; [1],621 nM
same,IC50,HLA-A*02:06; [1],1430 nM
LILSNKLLYA,IC50,HLA-A*68:02; [1],9790 nM
same,IC50,HLA-A*02:01; [1],169 nM
same,IC50,HLA-A*02:02; [1],468 nM
same,IC50,HLA-A*02:03; [1],122 nM
same,IC50,HLA-A*02:06; [1],36 nM
FLLALLSCL,IC50,HLA-A*68:02; [3],14000 nM
same,IC50,HLA-A*02:01; [3],2.8 nM
same,IC50,HLA-A*02:02; [3],2.6 nM
same,IC50,HLA-A*02:03; [3],17 nM
same,IC50,HLA-A*02:06; [3],24 nM
